Consider four molecules from patent publication US20170166655A1 (published 2017).

What all share (test): SPR
The target in experiment [1] is T1, human R131 FcγRIIa, extracellular region (human, UniProt P12318 34-217).
T1 chain: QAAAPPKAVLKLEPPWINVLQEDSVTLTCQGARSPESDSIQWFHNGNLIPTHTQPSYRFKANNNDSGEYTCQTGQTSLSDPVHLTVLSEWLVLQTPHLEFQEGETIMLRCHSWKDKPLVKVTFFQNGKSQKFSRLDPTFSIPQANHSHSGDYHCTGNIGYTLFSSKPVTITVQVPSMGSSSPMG

Experiment [2] addresses human F158 FcγRIIIa, extracellular region (human, UniProt P08637 17-208).
Experiment [3] addresses T2, human H131 FcγRIIa, extracellular region (human, UniProt P12318 34-217).
T2 chain: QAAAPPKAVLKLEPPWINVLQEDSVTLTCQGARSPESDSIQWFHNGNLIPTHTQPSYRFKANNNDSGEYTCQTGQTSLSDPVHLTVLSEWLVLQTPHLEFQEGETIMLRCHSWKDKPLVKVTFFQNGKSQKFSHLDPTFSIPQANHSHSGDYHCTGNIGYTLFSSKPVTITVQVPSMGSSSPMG

In experiment [4] the target is T3, human FcγRIIb, extracellular region (human, UniProt P31994 43-217).
T3 chain: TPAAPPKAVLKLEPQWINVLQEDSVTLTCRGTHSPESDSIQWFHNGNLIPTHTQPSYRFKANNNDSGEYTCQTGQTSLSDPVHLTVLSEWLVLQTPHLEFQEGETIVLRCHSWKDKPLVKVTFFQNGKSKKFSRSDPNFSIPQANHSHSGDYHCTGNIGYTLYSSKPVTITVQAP

Experiment [5] addresses human V158 FcγRIIIa, extracellular region (human, UniProt P08637 17-208).
Experiment [6] deals with T4, human FcγRI, extracellular region (human, UniProt P12314 16-292).
T4 chain: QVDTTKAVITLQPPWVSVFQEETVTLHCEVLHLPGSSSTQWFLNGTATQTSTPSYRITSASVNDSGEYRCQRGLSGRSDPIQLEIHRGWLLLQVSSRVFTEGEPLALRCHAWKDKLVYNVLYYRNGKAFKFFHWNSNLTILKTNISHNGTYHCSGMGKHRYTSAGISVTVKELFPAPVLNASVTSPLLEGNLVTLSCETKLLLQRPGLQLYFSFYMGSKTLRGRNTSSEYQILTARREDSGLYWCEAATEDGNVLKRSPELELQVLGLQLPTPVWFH

Experiment [7] deals with T1, human R131 FcγRIIa, extracellular region.
The target in experiment [8] is T2, human H131 FcγRIIa, extracellular region.

Where two headings read alike, the source gives them in different places.

human V158 FcγRIIIa, extracellular region, sequence (P08637 17-208 F176V): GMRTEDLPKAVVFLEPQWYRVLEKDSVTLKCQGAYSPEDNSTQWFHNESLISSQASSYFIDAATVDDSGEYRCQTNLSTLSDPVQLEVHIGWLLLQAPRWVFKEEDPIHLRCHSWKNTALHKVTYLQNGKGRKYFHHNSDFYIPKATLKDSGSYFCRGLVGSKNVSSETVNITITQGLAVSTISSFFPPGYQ
human F158 FcγRIIIa, extracellular region, sequence (P08637 17-208): as the sequence (P08637 17-208 F176V) above, with V160F counted along it

B1: IgG2_S239D/I332E (antibody)
chain: ASTKGPSVFPLAPCSRSTSESTAALGCLVKDYFPEPVTVSWNSGALTSGVHTFPAVLQSSGLYSLSSVVTVPSSNFGTQTYTCNVDHKPSNTKVDKTVERKCCVECPPCPAPPVAGPDVFLFPPKPKDTLMISRTPEVTCVVVDVSHEDPEVQFNWYVDGVEVHNAKTKPREEQFNSTFRVVSVLTVVHQDWLNGKEYKCKVSNKGLPAPEEKTISKTKGQPREPQVYTLPPSREEMTKNQVSLTCLVKGFYPSDIAVEWESNGQPENNYKTTPPMLDSDGSFFLYSKLTVDKSRWQQGNVFSCSVMHEALHNHYTQKSLSLSPGK
Regarding B1, the Kd in experiment [1] was found to be 128 nM; in experiment [2] it was 81.7 nM; in experiment [3], 160 nM; in experiment [4], 682 nM; in experiment [5] it was 30.3 nM; in experiment [6] it was 24.2 nM.

B2: IgG2 WT (antibody)
chain: ASTKGPSVFPLAPCSRSTSESTAALGCLVKDYFPEPVTVSWNSGALTSGVHTFPAVLQSSGLYSLSSVVTVPSSNFGTQTYTCNVDHKPSNTKVDKTVERKCCVECPPCPAPPVAGPSVFLFPPKPKDTLMISRTPEVTCVVVDVSHEDPEVQFNWYVDGVEVHNAKTKPREEQFNSTFRVVSVLTVVHQDWLNGKEYKCKVSNKGLPAPIEKTISKTKGQPREPQVYTLPPSREEMTKNQVSLTCLVKGFYPSDIAVEWESNGQPENNYKTTPPMLDSDGSFFLYSKLTVDKSRWQQGNVFSCSVMHEALHNHYTQKSLSLSPGK
As to B2, the Kd in experiment [1] turned out to be 4270 nM; in experiment [3], 525 nM.

B3: WT IgG2 (antibody)
chain: ASTKGPSVFPLAPCSRSTSESTAALGCLVKDYFPEPVTVSWNSGALTSGVHTFPAVLQSSGLYSLSSVVTVPSSNFGTQTYTCNVDHKPSNTKVDKTVERKCCVECPPCPAPPVAGPSVFLFPPKPKDTLMISRTPEVTCVVVDVSHEDPEVQFNWYVDGVEVHNAKTKPREEQFNSTFRVVSVLTVVHQDWLNGKEYKCKVSNKGLPAPIEKTISKTKGQPREPQVYTLPPSREEMTKNQVSLTCLVKGFYPSDIAVEWESNGQPENNYKTTPPMLDSDGSFFLYSKLTVDKSRWQQGNVFSCSVMHEALHNHYTQKSLSLSPGK
As for B3, the Kd in experiment [7] is 4270 nM; in experiment [8], 525 nM.

B4: IgG2_S239D/I332E/G327A (antibody)
chain: ASTKGPSVFPLAPCSRSTSESTAALGCLVKDYFPEPVTVSWNSGALTSGVHTFPAVLQSSGLYSLSSVVTVPSSNFGTQTYTCNVDHKPSNTKVDKTVERKCCVECPPCPAPPVAGPDVFLFPPKPKDTLMISRTPEVTCVVVDVSHEDPEVQFNWYVDGVEVHNAKTKPREEQFNSTFRVVSVLTVVHQDWLNGKEYKCKVSNKALPAPEEKTISKTKGQPREPQVYTLPPSREEMTKNQVSLTCLVKGFYPSDIAVEWESNGQPENNYKTTPPMLDSDGSFFLYSKLTVDKSRWQQGNVFSCSVMHEALHNHYTQKSLSLSPGK
For B4, the Kd in experiment [1] amounted to 161 nM; in experiment [2] it was 36.3 nM; in experiment [3], 122 nM; in experiment [4] it was 232 nM; in experiment [5], 19.4 nM; in experiment [6] it was 13.2 nM.
